Measured values as given in FireProtDB (doi:10.1021/acs.biochem.7b00833).

Conditions: Bacillus subtilis (strain 168); pH 7; 25 °C; Urea; CD; Sodium Phosphate Buffer; whole UniProt chain shown

B1: SCO1 protein homolog wild type, P54178 (protein)
chain: MKVIKGLTAGLIFLFLCACGGQQIKDPLNYEVEPFTFQNQDGKNVSLESLKGEVWLADFIFTNCETICPPMTAHMTDLQKKLKAENIDVRIISFSVDPENDKPKQLKKFAANYPLSFDNWDFLTGYSQSEIEEFALKSFKAIVKKPEGEDQVIHQSSFYLVGPDGKVLKDYNGVENTPYDDIISDVKSASTLK
Which results are given for B1?
denaturant m value: 3.51 kcal/mol/M; denaturant midpoint (higher = more stable): 2.91 M; unfolding free energy: 9.93 kcal/mol
